Experimental data: the supplement of paper PMC10567573

B1: TRIB1 (parent)
chain: SYVRSRKRLREEEAARLFKQIVSA

Variants of: B1
Test: protein stability index of a GFP-peptide fusion (GPS, HEK-293T) (PSI 1-6); higher = more stable
Settings: c terminus: a fixed tail appended
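Note: lentivirally expressed fusions sorted by FACS into six bins by GFP to DsRed ratio, PSI derived from sequencing read proportions per bin multiplied by bin number.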

Protein stability index, by site and new letter:
A15: W 1.74; H 2.08; N 2.48; Y 1.71; V 1.84; M 2.68; C 1.93; I 1.4; S 2.36; P 3.43; R 2.62; L 2.05; Q 2.15; F 1.59; T 2.08; K 1.96; E 2.56; D 2.32; G 2.56
R4: Q 2.09; H 2.56; A 1.41; E 2.76; W 1.29; P 1.77; I 1.57; C 1.7; L 2.35; M 2.12; D 2.44; V 2.28; S 1.87; F 1.22; Y 2.11; N 2.76; T 1.8
K19: F 2.71; D 2.25; M 2.43; R 1.85; S 2.31; E 2.06; C 2.34; H 1.69; N 1.7; I 2.91; Q 2.21; Y 2.02; L 1.33; P 2.81; T 2.04
L9: P 1.86; K 2.25; R 2.07; F 1.68; H 2.24; M 3.22; V 1.75; W 2.56; Y 2; T 2.24; D 2.47; C 1.5; A 1.91; I 3.23; Q 2.3; S 2.44
E11: P 1.85; R 1.54; M 1.66; N 2.13; Q 1.9; I 1.4; K 2.25; A 2.05; D 2.17; F 3.54; W 2.05; V 1.75; T 2.44; G 1.33; H 2.41; Y 1.22; S 2.69
R6: Q 1.88; M 1.54; D 2.99; T 2.07; A 1.89; V 1.95; K 2.63; C 1.85; Y 2.23; F 1.42; I 2; P 2.66; N 1.81; H 2.33; G 1.72; S 2.21; L 1.85; W 1.97
Y2: W 1.25; T 2.38; V 2.33
V22: D 3.22; C 2.13; F 1.83; A 2.58
F18: R 3.74; A 3.44; S 3.42; H 4.19; M 3.34; G 3.92; N 3.1; V 2.86; I 2.06; Q 4.07; D 3.83; P 3.99; L 1.52; E 3.02; Y 2.08; C 3.31; T 3.84; W 2.56
E12: L 2; A 2.16; C 1.76; Y 2.37; V 1.33; H 3.01; T 2.03; D 1.9; K 2.27; Q 1.98; I 2.65; N 2.61; P 2.03; M 2.48
Q20: F 1.61; V 1.04; E 2.4; I 1.43; H 1.54; M 2.17; R 1.95; A 1.8; S 2.27; K 2.15; T 2.37; P 3.03; N 2.64; L 1.32; D 2.08; C 1.43; Y 1.13; G 2.52; W 1.46
L17: D 3.46; G 3.72; F 1.6; S 2.62; E 3.46; C 2.52; K 2.61; H 2.48; M 2.03; P 3.97; V 2.98; R 2.1; Y 2.61; N 3.21; T 2.87; A 2.49; W 2.24; Q 2.1
K7: A 2.06; E 2.5; Y 1.93; N 2.15; S 2.53; G 2.99; D 3.05; I 1.86; Q 2.02; H 1.58; T 2.52; M 2.38; R 2.11; W 1.62; F 2.12; C 2.34; P 2.03
R16: H 2.2; V 2.53; G 2.41; D 2.17; N 2.58; M 2.52; T 2.57; C 2.01; A 1.9; E 2.87; S 1.72; F 2.66; P 3.39; K 2.31; Y 2.32; I 1.37; L 1.93; Q 2.63
R8: N 2.6; C 2.05; D 1.78; A 2.3; Q 2.38; F 1.48; H 1.96; I 2.3; L 2.03; M 1.58; P 2.09; S 1.99; W 1.95; Y 1.99; K 2.49; E 3.2; V 2.37
A14: Y 2.18; H 2.26; W 2.11; F 2.34; I 2.4; G 3.38; V 2.09; R 3.17; S 3.24; T 2.83; L 2.03; M 1.81; N 1.89; C 2.24; Q 2.99; D 1.59; K 2.64; E 2.85; P 2.56
E13: V 1.65; I 2.52; P 2.41; Y 2.14; M 2.21; Q 2.5; S 2.05; D 1.73; R 2.85; H 2.47; L 2.54; N 2.53; F 2.37; K 2.94; G 3.21; T 1.74; C 2.05; A 1.27
I21: F 2.2; S 3.66; W 3.98; M 2.47; T 3.48; R 3.8; Y 2.06; K 3.27; V 2.34; Q 2.06; P 3.76; N 4.01; D 4.08; E 3.23; H 2.4; L 1.39
V3: T 2.12; C 1.71; A 1.68; H 1.22; S 2.36; N 2.08; K 1.99; D 2.05; W 1.61; R 2.63; I 1.69; F 2.64; E 1.83; L 2.08; Y 1.98; M 1.58; G 1.3
S5: T 2.21; C 1.62; G 3.13; Y 2.65; A 1.76; F 2.4; L 2.5; N 2.12; P 2.27; I 1.73; D 2.24; E 1.39; K 2.31; H 1.94; M 1.92
R10: S 2.34; D 2.28; M 1.35; E 2.27; Q 2.22; I 1.83; K 3.08; T 2.67; G 3.19; L 2.23; W 2.12; Y 1.95; A 2.94; P 2.28; V 1.69; H 2.63; N 2.54; C 1.5; F 2.04
